Earlier results on one substance are cited in article PMC9558565.

A word on the Kd: it is the constant that tells how readily two partners part at equilibrium.

The target in this data set is p53p (Homo sapiens) (UniProt P04637).
Chain of p53p (Homo sapiens) (P04637 whole entry): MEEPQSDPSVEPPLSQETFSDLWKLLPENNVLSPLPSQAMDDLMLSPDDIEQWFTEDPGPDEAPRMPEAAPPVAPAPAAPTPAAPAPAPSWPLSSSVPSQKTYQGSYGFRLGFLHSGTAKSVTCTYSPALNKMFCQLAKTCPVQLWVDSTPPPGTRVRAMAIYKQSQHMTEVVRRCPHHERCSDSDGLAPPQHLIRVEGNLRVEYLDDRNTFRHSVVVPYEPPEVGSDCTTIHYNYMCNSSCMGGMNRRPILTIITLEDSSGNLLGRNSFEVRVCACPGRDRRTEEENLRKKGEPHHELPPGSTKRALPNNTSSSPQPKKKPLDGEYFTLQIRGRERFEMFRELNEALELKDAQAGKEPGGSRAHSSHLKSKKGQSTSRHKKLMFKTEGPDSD

Chain of MDM2 (Q00987 whole entry): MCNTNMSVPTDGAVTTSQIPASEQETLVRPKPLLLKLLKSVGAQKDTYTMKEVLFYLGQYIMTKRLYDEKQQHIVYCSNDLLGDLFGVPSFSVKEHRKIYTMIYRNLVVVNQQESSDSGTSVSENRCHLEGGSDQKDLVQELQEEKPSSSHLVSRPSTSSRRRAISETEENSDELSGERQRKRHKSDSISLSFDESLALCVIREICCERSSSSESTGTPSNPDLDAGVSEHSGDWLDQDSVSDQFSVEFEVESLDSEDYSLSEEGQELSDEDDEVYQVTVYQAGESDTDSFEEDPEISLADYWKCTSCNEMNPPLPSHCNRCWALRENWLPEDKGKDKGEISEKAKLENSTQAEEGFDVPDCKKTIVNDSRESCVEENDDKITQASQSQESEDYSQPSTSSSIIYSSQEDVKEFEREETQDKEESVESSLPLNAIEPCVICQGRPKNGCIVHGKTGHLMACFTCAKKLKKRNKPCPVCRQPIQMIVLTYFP

Consider MDM2 (from UniProt Q00987), for which the dissociation constant (Kd) is 0.046 µM.
